Test results taken from the supplement of paper PMC10126150.
± gives the standard deviation of the averaged measurements.

What follows are sequences tested on ATP (assay: switch fluorescence ratio, 500 uM ATP over buffer (Cy3 cluster intensity, sum of 5 cycles each) (fold (ratio)); higher = stronger signal-on switching upon ATP binding; sequences stand for … in TCGTCGGCAGCGTCAGATGTGTATAAGAGACAGTTTTTTTTTTTTTTTTTTTTTTTTT…TC). Conditions: aptamer strand: ATP DNA aptamer (quencher-CACCTGGGGGAGTATTGCGGAGGAAGG + anchor), 100 nM annealed; ATP concentration: 500 uM.
In short: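 Exposure to 500 uM ATP lasted 15 min at 22 °C before imaging, and a selection-buffer image was taken beforehand, for Cy3-labelled switching-strand clusters on a modified Illumina MiSeq flow-cell annealed to 100 nM quencher-labelled ATP aptamer. Five buffer/ATP cycles were run with NaOH stripping and re-annealing between them. The fluorescence ratio per cluster is summed target-cycle over summed buffer-cycle Cy3 intensity, averaged per switch-domain sequence. Clusters outside 100-1000 RFU were excluded.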
TCCGGTTTTT was tested, and the switch fluorescence ratio was 1.07 ± 0.16.
CGTGTGTGGT gave a switch fluorescence ratio of 0.994 ± 0.024.
Work on CGTTGTATGG yielded a switch fluorescence ratio of 1.01 ± 0.046.
Work on TTAAAAAGTT yielded a switch fluorescence ratio of 1 ± 0.031.
TTCATAGTTC showed a switch fluorescence ratio of 0.986 ± 0.013.
In the case of GGGAGGAGCA, the switch fluorescence ratio is reported as 1.01 ± 0.073.
Sequence AAGGTGGGGA has a switch fluorescence ratio of 1.02 ± 0.034.
With CGATAGATGT the switch fluorescence ratio was 1 ± 0.024.
Work on AAGGATTAGA yielded a switch fluorescence ratio of 0.987 ± 0.02.
ATTTTGGGAC was tested, and the switch fluorescence ratio was 1.03 ± 0.047.
GCAGCTGGTA was tested, and the switch fluorescence ratio was 1.05 ± 0.024.
Sequence GTTGGAGAGG has a switch fluorescence ratio of 0.974 ± 0.087.
Work on ACCAAAGAGA yielded a switch fluorescence ratio of 0.993 ± 0.013.
Sequence CAGATCCTTA has a switch fluorescence ratio of 1.051 ± 0.0082.
In the case of ACAGTATTCT, the switch fluorescence ratio is reported as 1.047 ± 0.01.
With CGGGTTTGTT the switch fluorescence ratio was 0.997 ± 0.02.
With GTTTTTTTTC the switch fluorescence ratio was 0.985 ± 0.011.
Work on CGGTATAATT yielded a switch fluorescence ratio of 0.999 ± 0.042.
GAAATACCTT gave a switch fluorescence ratio of 0.976 ± 0.0021.
ACAGTGGTCG was tested, and the switch fluorescence ratio was 1.06 ± 0.033.
GGAAGGTACG showed a switch fluorescence ratio of 0.9856 ± 0.0062.
In the case of TTGGCATGTC, the switch fluorescence ratio is reported as 1.06 ± 0.041.
GGCACATAAT was tested, and the switch fluorescence ratio was 1.08 ± 0.087.
Work on TCGGTTTGCG yielded a switch fluorescence ratio of 1.01 ± 0.022.
With CAGCTCCCGG the switch fluorescence ratio was 1.07 ± 0.039.
In the case of GGGGGATCTC, the switch fluorescence ratio is reported as 1.01 ± 0.021.
For TAGGGTGCGG, the switch fluorescence ratio was 1.03 ± 0.021.
GCATGAAGGT was tested, and the switch fluorescence ratio was 1 ± 0.014.
Work on TTACGAGGGG yielded a switch fluorescence ratio of 0.994 ± 0.024.
With TGTCAAAGAT the switch fluorescence ratio was 0.9772 ± 0.0044.
Sequence TTCCATTAGT has a switch fluorescence ratio of 1.01 ± 0.035.
ATAATGGTGT gave a switch fluorescence ratio of 1.03 ± 0.029.
With ATTTTGTCTT the switch fluorescence ratio was 1.02 ± 0.019.
TTTTGATATA was tested, and the switch fluorescence ratio was 0.9989 ± 0.0085.
TCGTTTAATT gave a switch fluorescence ratio of 0.994 ± 0.04.
Sequence ATTAAAGGGA has a switch fluorescence ratio of 1 ± 0.037.
Sequence GGCGGCGCAA has a switch fluorescence ratio of 1.51 ± 0.16.
Sequence GCTGCCGTGT has a switch fluorescence ratio of 0.967 ± 0.064.
TTCATATTTT showed a switch fluorescence ratio of 0.996 ± 0.015.
With ATGTTGGTAT the switch fluorescence ratio was 1 ± 0.022.
GTCGGGGGTA showed a switch fluorescence ratio of 0.992 ± 0.039.
In the case of AAAATAAGGC, the switch fluorescence ratio is reported as 0.981 ± 0.03.
TCAATGGCTA gave a switch fluorescence ratio of 1.02 ± 0.018.
ATGATTAACT gave a switch fluorescence ratio of 0.986 ± 0.036.
Work on ATGAATGAAC yielded a switch fluorescence ratio of 1.03 ± 0.063.
ATGGTTGAGC was tested, and the switch fluorescence ratio was 1.03 ± 0.024.
TCTCAATGCG gave a switch fluorescence ratio of 1.02 ± 0.065.
In the case of TCGGGGACCG, the switch fluorescence ratio is reported as 0.952 ± 0.052.
For AGTTGGGCGG, the switch fluorescence ratio was 1.02 ± 0.021.
Work on TTTTAGCTCT yielded a switch fluorescence ratio of 0.963 ± 0.015.
TTGGGAGATG gave a switch fluorescence ratio of 1.1 ± 0.13.
AGCAGTTCGG was tested, and the switch fluorescence ratio was 1 ± 0.036.
With TGGGAGAAAC the switch fluorescence ratio was 1.09 ± 0.091.
In the case of GTTATTGGAG, the switch fluorescence ratio is reported as 0.999 ± 0.026.
ATGTAAATTT showed a switch fluorescence ratio of 1.01 ± 0.005.
Work on TGTGAGGCTT yielded a switch fluorescence ratio of 1.03 ± 0.015.
GGTGGGGATG showed a switch fluorescence ratio of 0.984 ± 0.027.
Sequence AATCGGTAGG has a switch fluorescence ratio of 1.01 ± 0.027.
ACTTTGGACA gave a switch fluorescence ratio of 1.038 ± 0.0052.
Work on GGGCCCATA yielded a switch fluorescence ratio of 0.982 ± 0.028.
GAATTACGGC showed a switch fluorescence ratio of 1.04 ± 0.069.
For TCATCAGGCC, the switch fluorescence ratio was 1.02 ± 0.012.
With ATTAGCAGGC the switch fluorescence ratio was 1.11 ± 0.012.
Sequence TTTGGCGAAC has a switch fluorescence ratio of 1.02 ± 0.02.
For AAACTAAGTT, the switch fluorescence ratio was 1.041 ± 0.008.
AAGAGTATTG was tested, and the switch fluorescence ratio was 1 ± 0.02.
With TTATAGGCGG the switch fluorescence ratio was 0.981 ± 0.016.
CGGGCGGGAC showed a switch fluorescence ratio of 1.59 ± 0.021.
For CTTTGCTAAC, the switch fluorescence ratio was 2.21 ± 0.072.
AGTGATATTA gave a switch fluorescence ratio of 1.01 ± 0.022.
For GGGGTGCGTG, the switch fluorescence ratio was 0.984 ± 0.045.
AGGTACGGCC gave a switch fluorescence ratio of 1.03 ± 0.033.
TAAAAGTCCG was tested, and the switch fluorescence ratio was 1.06 ± 0.022.
AATGTGAAAA gave a switch fluorescence ratio of 0.976 ± 0.053.
Sequence GGTATGGAGG has a switch fluorescence ratio of 0.988 ± 0.038.
With GTGCAAGGGT the switch fluorescence ratio was 1.01 ± 0.029.
